Data: patent US7799901B2, “Modulators of the function of FAS receptors and other proteins” (Yeda Research and Development Co. Ltd., priority 1995, dated 2010)

T1: intracellular domain of FAS-R (Homo sapiens, UniProt P25445)
T1 construct: expressed in transfected cells; host or cells: HeLa HtTA-1
T1 sequence (P25445 26-335): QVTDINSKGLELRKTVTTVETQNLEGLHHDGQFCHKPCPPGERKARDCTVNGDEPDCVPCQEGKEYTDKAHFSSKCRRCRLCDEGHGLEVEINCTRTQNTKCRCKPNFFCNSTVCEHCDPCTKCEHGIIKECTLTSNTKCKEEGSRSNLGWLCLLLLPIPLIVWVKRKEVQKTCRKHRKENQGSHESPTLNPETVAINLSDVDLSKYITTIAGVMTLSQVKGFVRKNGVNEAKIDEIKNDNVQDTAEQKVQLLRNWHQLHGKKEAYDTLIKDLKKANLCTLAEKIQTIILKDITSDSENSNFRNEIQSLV

T2: FAS-R-p55-R chimera (p55-FAS) (Homo sapiens, UniProt P19438+P25445)
T2 construct: transmembrane and intracellular domain of FAS-R (amino acids 153-319); expressed in transfected cells; host or cells: HeLa HtTA-1
T2 sequence (P19438+P25445 with tags, fused parts or gaps): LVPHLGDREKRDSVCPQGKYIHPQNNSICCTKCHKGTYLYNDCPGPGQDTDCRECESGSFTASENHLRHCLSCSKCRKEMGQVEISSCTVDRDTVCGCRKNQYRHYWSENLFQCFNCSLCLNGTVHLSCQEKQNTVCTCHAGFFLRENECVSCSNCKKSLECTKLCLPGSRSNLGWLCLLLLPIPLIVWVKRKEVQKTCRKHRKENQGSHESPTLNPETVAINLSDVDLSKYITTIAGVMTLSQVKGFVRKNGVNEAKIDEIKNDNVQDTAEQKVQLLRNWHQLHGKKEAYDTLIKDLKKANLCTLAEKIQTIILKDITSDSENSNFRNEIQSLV


Key:
[1] = molecular target: CED3/ICE homology region in MACHα1 (Homo sapiens, UniProt Q14790); settings: 5 mM; bacterial extracts; listed as iodacetic acid
Chain of CED3/ICE homology region in MACHα1 (Q14790 217-479): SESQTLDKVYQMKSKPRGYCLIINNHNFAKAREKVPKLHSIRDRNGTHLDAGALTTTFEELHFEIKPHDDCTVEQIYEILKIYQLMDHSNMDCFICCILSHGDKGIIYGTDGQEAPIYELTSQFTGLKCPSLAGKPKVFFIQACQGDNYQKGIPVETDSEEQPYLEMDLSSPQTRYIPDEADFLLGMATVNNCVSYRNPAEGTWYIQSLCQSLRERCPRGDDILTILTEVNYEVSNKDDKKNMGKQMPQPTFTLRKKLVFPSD

[2] = molecular target: T1, intracellular domain of FAS-R; assay: Cross immunoprecipitation with co-expressed FAS-R in HeLa cells; type: binding
Experimental: (§1) MORT-1, N-linked to the FLAG octapeptide, (FLAG-MORT-1; Eastman Kodak, New Haven, Conn., USA), Fas-IC, FAS-R, p55-R, a chimera comprised of the extracellular domain of p55-R (amino acids 1-168) fused to the transmembrane and intracellular domain of FAS-R (amino acids 153-319), and the luciferase cDNA which serves as a control, were expressed in HeLa cells. Expression was carried out using a tetracycline-controlled expression vector, in a HeLa cell clone (HtTA-1) that expresses a tetracycline-controlled transactivator (Gossen and Bujard, 1992; see also Boldin et al, 1995). Metabolic labeling with [^35S]methionine and [^35S] cysteine (DUPONT, Wilmington, Del., USA and Amersham, Buckinghamshire, England) was performed 18 hours after transfection, by a further 4 h incubation at 37° C. in Dulbecco's modified Eagle's medium lacking methionine and cysteine, but supplemented with 2% dialyzed fetal calf serum. The cells were then lysed in RIPA buffer (10 mM Tris-HCl, pH 7.5, 150 mM NaCl, 1 NP-40, 1% deoxycholate, 0.1% SDS and 1 mM EDTA) and the lysate was precleared by incubation with irrelevant rabbit antiserum (3 μl/ml) and Protein G Sepharose beads (Pharmacia, Uppsala, Sweden; 60 μl/ml). […]

[3] = molecular target: T2, FAS-R-p55-R chimera (p55-FAS); assay: Cross immunoprecipitation with co-expressed p55-FAS chimera in HeLa cells; type: binding
Experimental: as §1

[4] = tested on: GST-Fas-IC fusion protein; assay: In vitro binding to GST-Fas-IC on glutathione beads; parameters: species or system human or mouse; settings: [35S]-labeled protein from HeLa extracts; SDS-PAGE, autoradiography
Experimental: Glutathione S-transferase (GST) fusions with the wild type or a mutated Fas-IC were produced and adsorbed to glutathione-agarose beads; see Boldin et al, 1995; Ausubel et al, 1994; Frangioni and Neel, 1993). Binding of metabolically-labeled FLAG-MORT-1 fusion protein to GST-Fas-IC was assessed by incubating the beads for 2 h at 4° C. with extracts of HeLa cells, metabolically labeled with [^35S]methionine (60 μCi/ml), that express FLAG-MORT-1. The extracts were prepared in a buffer containing 50 mM Tris-HCl, pH 7.5, 150 mM NaCl, 0.1% NP-40; 1 mM dithioteitol, 1 mM EDTA, 1 mM phenylmethylsulfonyl fluoride, 20 μg/ml Aprotonin, […] Leupeptin, 10 mM-sodium fluoride and 0.1 mM sodium vanadate (1 ml per 5×10^5 cells).
Expression of MORT-1 molecules fused at their N terminus with the. FLAG octapeptide (FLAG-MORT-1) yielded in HeLa cells proteins of four distinct sizes—about […], 28, 32, and 34 kD. […] Thus, the in vitro interaction was evaluated by assessing, by autoradiography following SDS-PAGE, the binding of [35] metabolically labeled MORT-1, produced in transfected HeLa cells as a fusion with the FLAG octapeptide (FLAG-MORT-1), to GST, GST fusion with the human or mouse Fas-IC (GST-huFas-IC, GST-mFas-IC) or to GST fusion with Fas-IC containing a Ile to Ala replacement mutation at position 225.

Molecule	effect on cleavage of Ac-DEVD-AMC by the MACHα1 CED3/ICE homology region [1]	binding to intracellular domain of FAS-R when co-expressed in HeLa cells [2]	binding to intracellular domain of FAS-R-p55-R chimera when co-expressed in HeLa cells [3]	in vitro binding to GST-Fas-IC [4]
O=C(O)CI [iodoacetic acid]	blocked	–	–	–
FLAG-MORT-1: MORT-1, N-linked to the FLAG octapeptide (protein, left off: small tags and cut ends, MORT-1, N-linked to the FLAG octapeptide) VNQAPECRFGGGILGPLGKRRDLARASEPRTEGARRAGPQPRPLADPAMDPFLVLLHSVSSSLSSSELTELKFLCLGRVVKRKLERVQSGLDLFSMLLEQNDLEPGHTELLRELLASLRRHDLLRRVDDFEAGAAAGAAPGEEDLCAAFNVICDNVGKDWRRLARQLKVSDTKIDSIEDRYPRNLTERVRESLRIWKNTEKENATVAHLVGALRSCQMNLVADLVQEVQQARDLQNRSGAMSPMSWNSDASTSEAS	–	capable of binding	capable of binding	showed ability to bind
